The target of assay [1] is T1, TL1A (UniProt O95150 72-251, limits assumed).
T1 construct: also called TNFSF15
T1 sequence (looked up): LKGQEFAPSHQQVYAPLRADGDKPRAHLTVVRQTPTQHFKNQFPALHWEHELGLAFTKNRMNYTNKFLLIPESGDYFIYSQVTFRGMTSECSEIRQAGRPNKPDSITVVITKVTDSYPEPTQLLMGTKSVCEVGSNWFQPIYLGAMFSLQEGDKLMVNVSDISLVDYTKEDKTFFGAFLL
The experiment in a line: selectivity ELISA: antibody pre-incubated with TL1A, inhibition of TL1A binding to plate-coated DcR3. In general terms: In an ELISA, binding on a coated surface is turned into a signal by an enzyme label.

Assay [2] addresses T1, TL1A. Briefly: selectivity ELISA: antibody pre-incubated with TL1A, inhibition of TL1A binding to plate-coated DR3.

B1: MK-7240 (antibody, V domains shown)
VH: QVQLVQSGAEVKKPGASVKVSCKASGFDIQDTYMHWVKQRPGQGLEWMGRIDPASGHTKYDPKFQVRVTITRDTSTSTVYLELSSLRSEDTAVYYCARSGGLPDVWGQGTTVTVSS
VL: EIVLTQSPGTLSLSPGERATLSCRASSSVSYMYWYQQKPGQAPRPLIYATSNLASGIPDRFSGSGSGTDFTLTISRLEPEDFAVYYCQQWEGNPRTFGGGTKLEIK
In the case of B1, the IC50 in the assay with TL1A [1] turned out to be 3.6 µg/mL; in the assay with TL1A [2] it was 6.3 µg/mL.

For orientation: IC50 means the concentration at which inhibition is half-maximal.

Values taken from US20250109210A1 (ABSCI, published 2025).
